Two molecules from paper PMC8151781, “Ca^2+ Regulates ERp57-Calnexin Complex Formation” (Molecules, 2021) can be followed below.

B1: luminal domain of human calnexin (residues 21-481) (domain or fragment, UniProt P27824 21-481, looked up)
chain: HDGHDDDVIDIEDDLDDVIEEVEDSKPDTTAPPSSPKVTYKAPVPTGEVYFADSFDRGTLSGWILSKAKKDDTDDEIAKYDGKWEVEEMKESKLPGDKGLVLMSRAKHHAISAKLNKPFLFDTKPLIVQYEVNFQNGIECGGAYVKLLSKTPELNLDQFHDKTPYTIMFGPDKCGEDYKLHFIFRHKNPKTGIYEEKHAKRPDADLKTYFTDKKTHLYTLILNPDNSFEILVDQSVVNSGNLLNDMTPPVNPSREIEDPEDRKPEDWDERPKIPDPEAVKPDDWDEDAPAKIPDEEATKPEGWLDDEPEYVPDPDAEKPEDWDEDMDGEWEAPQIANPRCESAPGCGVWQRPVIDNPNYKGKWKPPMIDNPSYQGIWKPRKIPNPDFFEDLEPFRMTPFSAIGLELWSMTSDIFFDNFIICADRRIVDDWANDGWGLKKAADGAAEPGVVGQMIEAAEERP
notes: calnexin (CNX), human, luminal domain, residues 21-481; pET15b construct; the N-terminal His tag was removed from the plasmid and a His tag added at the C-terminus; also called CNX; ER-luminal domain of CNX
B2: human ERp57 (residues 25-505) (enzyme, UniProt P30101 25-505, looked up)
chain: SDVLELTDDNFESRISDTGSAGLMLVEFFAPWCGHCKRLAPEYEAAATRLKGIVPLAKVDCTANTNTCNKYGVSGYPTLKIFRDGEEAGAYDGPRTADGIVSHLKKQAGPASVPLRTEEEFKKFISDKDASIVGFFDDSFSEAHSEFLKAASNLRDNYRFAHTNVESLVNEYDDNGEGIILFRPSHLTNKFEDKTVAYTEQKMTSGKIKKFIQENIFGICPHMTEDNKDLIQGKDLLIAYYDVDYEKNAKGSNYWRNRVMMVAKKFLDAGHKLNFAVASRKTFSHELSDFGLESTAGEIPVVAIRTAKGEKFVMQEEFSRDGKALERFLQDYFDGNLKRYLKSEPIPESNDGPVKVVVAENFDEIVNNENKDVLIEFYAPWCGHCKNLEPKYKELGEKLSKDPNIVIAKMDATANDVPSPYEVRGFPTIYFSPANKKLNPKKYEGGRELSDFISYLQREATNPPVIQEEKPKKKKKAQEDL
notes: ERp57 (protein disulfide isomerase family member), human, residues 25-505; Cloned into the NdeI and BamHI sites of pET15b; also called wild-type ERp57

What all share (details): both partners purified
The target of test [1] is B2. The test can be described thus: ITC; ERp57 (370 μM) in the syringe titrated into CNX (25 μM) in the cell; 20 mM HEPES pH 7.2, 100 mM NaCl, with 1 mM CaCl2, 15 °C; one-set-of-sites model.
Test [2] deals with B2. The test can be described thus: ITC; ERp57 (370 μM) in the syringe titrated into CNX (25 μM) in the cell; 20 mM HEPES pH 7.2, 100 mM NaCl, without Ca2+, 15 °C; one-set-of-sites model.
In test [3] the target is B1. The test can be described thus: ITC; ERp57 (370 μM) in the syringe titrated into CNX (25 μM) in the cell; 20 mM HEPES pH 7.2, 100 mM NaCl, with 1 mM CaCl2, 15 °C; one-set-of-sites model.
For test [4], the target named is B1. The test can be described thus: ITC; ERp57 (370 μM) in the syringe titrated into CNX (25 μM) in the cell; 20 mM HEPES pH 7.2, 100 mM NaCl, without Ca2+, 15 °C; one-set-of-sites model. Background: ITC needs no label: the signal is the heat of the interaction.

What is called Kd is the constant that tells how readily two partners part at equilibrium. High values mean a looser complex, low ones a tighter complex. B1: the equilibrium dissociation constant (Kd) in test [1] came out at 1520 nM; in test [2], 880 nM.

For B2, the dH was -3.81 kcal/mol in test [3] and -3.31 kcal/mol in test [4].
